Results reported in article PMC11544074.

Target: GFP-pNLRC3-8xHis (Sus scrofa (pig), UniProt A0A287AW79 1-1066)
Assay: MST

B1: HSV120 dsDNA (unlabelled) (dsDNA)
DNA 1: TAAGACACGATGCGATAAAATCTGTTTGTAAAATTTATTAAGGGTACAAATGCCCTAGCTAGACACGATGCGATAAAATCTGTTTGTAAAATTTATTAAGGGTACAAATTGCCCTAGC
DNA 2: GCTAGGGCAATTTGTACCCTTAATAAATTTTACAAACAGATTTTATCGCATCGTGTCTAGCTAGGGCATTTGTACCCTTAATAAATTTTACAAACAGATTTTATCGCATCGTGTCTTA
With B1 the Kd was 10.1 µM.
